Assay results reported in the DeepSol protein solubility set.

assay: soluble on expression in E. coli; label from the status in PepcDB or PDB records

Row | Sequence | soluble on expression in E. coli
1 | MGSDKIHHHHHHMDIRQLTYFIAVAEAKNYSRAAKSLFVTQPTLSQSIKKLEAELNTILFLQNGRQLALTEAGEILYEKGQLLMTNVNQMVTEIQQLNQEKKEGIRVGLTSLFAIQFMKQISTFMATHSNVEVSLIQDGSRKLQELLAKGKIDIGLLSFPSTRNDITIEPLQTSTKGYKVSIVMPKSHPLATLPEIELNDLRDYKVASLNEHYMLGEMLPRKCRALGFDPHIVFKHNDWEVLIHSLQDLNAVTILPSEFESISQVQDLCWVPLKDKNNFYPIGIAYRNDTSFSPMIEEFLSLLKTN | not soluble
2 | MGSDKIHHHHHHMDKFLYVAMSGAKQNMSALAVRANNLANANTDGFKSDLTQARSMQAFGEGLPSRVFAMTEIATSDFKAGALKTTGRDLDIAVKGDGWIAVQAPDGSEAYTRSGGLKFDNTGLLLNSRNNPVMGNSGPIVLPLPIDKLQISPDGIISIRPQGATAEVIEEVARIKLVNPDNSQMMRGEDGLFRLTSGDVAAKDPSVQVESGAIEASNVNPVEEMVALISIQRQYEMQVKMMKTAEETDQASSSLMRIG | not soluble
3 | MGSDKIHHHHHHMDKLMKICPTREIELQQKAKQLYEEEENRKIAYNAGLVEAEGYCQYTRLKEIIEFAKKCGYKKIGIAFCIGLKREMQTVQKIFEHHGFEVFSVICKNGAMPKSTIGLEASQTISKCSDEVMCNPIGQALFLNEAKVDLNVILGLCVGHDTLAMKYMEAPITTLVVKDRVTGHNPVAAIYNAESYFEKKLFDKDEE | not soluble
4 | MGSDKIHHHHHHMDLSNLNEKDMALGCKYCIKGEKLVLYITGLCEESCYYCPLSEKRKKKDVIFANEKQINSIEEAVEEARLCGSKGVGITGGNPLLRIERTVEYLKALKEEFGSDFHAHLYTTPKFVSEKNLKLLKDAGLDEIRLHSSKLFNDFENFDKLDFLEKLKLCKNYIKDVGVEIPGIPNFEKEILDLAFEIDKIGVKFLNINELEYSETNYQSLIDRGFSEKDDTTSRISGSFETAKYIIDNFKGKLIIHFCPSSLKDSVQMKNRLINRARNVAKPYEEITEEGLLLKGTINFKDLKDVSEVLEVLKENDVEFELLNDRLLLNPEILEDLIDHLKENNFDFKFSAYISEYYPTSDKLEVERIPLVTKKPNLKLKKK | not soluble
5 | MGSDKIHHHHHHMDQARTTTVDHPDRETPFLLFAQHGWDDRSYPIQQMAQSIAPQYSQVYAPNLGRFRTWIAIEPLIQSVEAVVLEAIAQYPDRPLRFLGHSMGGLIWLEVLSRHREWWDRTHSLVLVGSPVSGSDVCRLLDPFGRLPSIAKDLGRNRRPLAEAIAAQIPTASIVSDLGDYSDGLVPVNSSEFERATLVTLKDISHARLKSHPQVADAIAQFWKQPSIAPRPRDRAGTLIAQLRSLNLTECNHRNFAKAAVLKSQPDGVKIWRWLNPLRVQHIFVSSPDPATGRDCCRYAAYTGWLDDAALSKFLEKL | not soluble
6 | MGSDKIHHHHHHMDQSWVNQAIAKIEADYQRSADTHLIKLELPMLPCIDIYLKDESTHPTGSLKHRLARSLFLYALCNGWITQDTPIIESSSGSTAVSEAYFARLLGLPFIAVMPASTAKKKIQQIEFYGGRCHFVEHSSQIYAESQRLAEELSGHYMDQFTYAERATDWRGNNNIANSIFEQMQREPHPVPSWIVMSPGTGGTSATIGRYIRYQCAKTKLCVVDPENSVFYDYYHSGDASISCAGASRIEGIGRPRAEPSFIPGVVDHMVKIDDSASIATIYWLETLIGRKAGPSTGTNLYGALQLASEMHANGQTGSIVTLLCDSGDRYLDTYYDKQWVDEHIGDITEYQAKLAAFNESGHLE | not soluble
7 | MGSDKIHHHHHHMDSLGEQPSNRAPVITISSGRYLAQIATYGGGIKSLTYDGRPLVETYPDDAFPPLNAGVVLAPWPNRTDAGAYDFQGQSYQLPITEPDRNNAIHGFVANAVWNIDLIRPARVILSTTIEPQQGWPWAIELAADYLLTDSGLRAQFTATTPHEAVPFGFGWHTYLSAQGAEVDKTTLRVGVDKQWMLDDRNLPTGELVQPTNDVSGGLPMAGKLLDDCFLAERTPVTTVLESQGVGVSMHCSEQFPWFQIFTPDPAWEMPYPGRGRSVAVEPMTTSPNGLNLGIDTIGAASPWHGTITISAYNKHS | not soluble
8 | MGSDKIHHHHHHMDSNYTKAGYLTEPFKIFHLRDEHKLNIDFHYHDFHKILIHLHGNVSYCIEGRSYELKEHDIVLVNAGEVHKPILNDDSIYERIIIYVSQQLIDDYVSKGYDLACCFKQAYANQSHVLRLAATKGSRLADTIKGLDSTLRETNEYANELYQKLLFLEFLIQLNRITLHGGIEYINTFSSNKKIVEILDFLNKNLTNRISIDELADKFYMSRYHLMHTFKEETGCTIGSYITTKRLLLARDMIRDGSSVSAACDACGFGSYSSFIRAYRKQFHSTPTNT | not soluble
9 | MGSDKIHHHHHHMDTVNYTHHLSTFVDVVRAGSFSAVARRQGMKPSSIARKIDMLEDYFGAALFVRSTRALMLTDVGEVLVARAEVILNELNAMRVEIKSIKDNLDGPLRISCLPTFGKLHILPWLPKLRENFPRMTVELDLTERIANPSIERLDAVLRIGPLNDSGLYAKTIGVQRWLVCASPAYVGRSGKPAGWSQLAGHAIVDKLHDPAGICWHGALDPQQYSAMSIGFRCNDFDGLRQAALGGLGLAYLPDWVALPDITAGRLVKLFDDSKRGDEPISLLRASSKPSARLQIFHDALLDHLRKFSETGYGVE | not soluble
10 | MGSDKIHHHHHHMDVLKEVLSLDQDKFDQLKETSRDKTNETDDPFENYLKDCKFKAPSNKDQSPFAKLKSLQETHSNNEAAINIIIPQLIDYLTEFTNRLSNYTQDLDFIKKKSNELQSLLEYNSTKLAHISPMVNDLMIPPELIDDIIKGKINESWQDNITFIADKEEIYNKYRSNNLDQDNKDAENSAMLAPKDFDKLCQLLDILKNVILERSKRLIISKIKTLRSHNPVPSQRIQNKLLKVQKIFPFIRDNNLSLALELRQAYCYTMKWYYREYFSRYIRSLTILQFQQIDSQFALGNGLSTTSVSGFNNSPSLFFSNYLTTSASNAFYNKLPVTDEKIDKYFQIKKRLNILTQEDNTVMVSQIAENNTTKNYIEIGFKNLNLAILDNCTVEYHFLKDFFAMNGDNFEEINGLLEQIFQPTFDEATTYTQQLIQYNYDIFGVLISIRVANQLQFESERRGIPSMFDSFLNGQLIQLWPRFQQLVDFQCESLRKAAITTNVAKYAGNSSTSNSSPLTSPHELTVQFGKFLSSFLTLAITHKQSIDERSEPLYNSIIRLRNDFETVMTKCSKKTKSPERFLATNYMYLYNNLQQLHLHLNINDSDAQNYNFDSAENVGTKVANDDDNDSSVPLIIRETENHFKTLVEAFTRN | not soluble
11 | MGSDKIHHHHHHMDYKELLEVLRKDLNFKKVDLYQEKSNKTRYREIELGEKSPTIEELISFTDTLGIRLSEFLYRGDITPLAASYYGKRKIEVASLINNFPELEKQFPEIYKDRFKNLQCYTLFTLCLIISKSLNNSLYTFKNKDIRELKNFYKNREVILGADYAILSHLYMAVPEYSNELDFLTEKLFPINQSYGDIHDHAVQLCIKNAVTVFLEKKDFEKADYFLEQFDIVRKVPSFILDGTINLEMIYLKHLRNFLKKRNMEEYLKAVNIVNLFSQLGENDTYKELVKEVTEIARKENFEVPSSLNIIADTFEGVGYLKSDK | not soluble
12 | MGSDKIHHHHHHMEDFWRIRATDTAWKGVLHLASPRRYSRGEVIIRAGEMVDSLFYLESGEVRMIRTSMEGSEKILMYIEEGTLFGETPFFTGQPILSTFVCSRPAVIWRFSRHSVYADLLPNHPEIVSSLLHTFAAKVSTLSNQSASLGLQNVAERLCTFLYVTSGESISGAHGAELKLSMKMRDIANLLGVHRTTLYKAIRDLEKEGVLENFTRDSVRIADVTRFLEMVHK | not soluble
13 | MGSDKIHHHHHHMEEVVKRLAEIRAMDARGEGGRLFTYLYETGDPGVKEVSLRAFEMFLDTNALDPTVFKSALFFERELVSFASSLAGGVEGVVGTVTYGGTESIILAAMAAREWYRSLGGSRTPGIVAPQTVHPSVRKAARYLGMRLSIAPVDPGSKRVDIDSLVSLVDDRTAMVVVSAPNYPYGTVDDVRSVAEALSSQRVWLHVDACVGGFILPFMRELGLYSGAFAFDVEGVYSVSMDLHKYGYSPKGASVLLFRDGSLKKHSIFADLRWPGYPFINTTVLSSRSVAPLAAAWAVTNYLGRRGYLELARKAVEARDEIMRGLESIGFRSLAPIESTILSVALDDPADTLRFHANMSRRGWILGLQPGVEGLAPPNIHLTISPIHKLVSPQFLGDARASSSEPLPKELEEAWRLLESRGPLELAGMIGRTQYDQVIIAWILSSIPPDLAEDLARELTVEVYRG | not soluble
